# From IntAct's records for PubMed 31515488
# B1: TNF receptor-associated factor 2 (Homo sapiens), Q12933 (parent)
# chain: MAAASVTPPGSLELLQPGFSKTLLGTKLEAKYLCSACRNVLRRPFQAQCGHRYCSFCLASILSSGPQNCAACVHEGIYEEGISILESSSAFPDNAARREVESLPAVCPSDGCTWKGTLKEYESCHEGRCPLMLTECPACKGLVRLGEKERHLEHECPERSLSCRHCRAPCCGADVKAHHEVCPKFPLTCDGCGKKKIPREKFQDHVKTCGKCRVPCRFHAIGCLETVEGEKQQEHEVQWLREHLAMLLSSVLEAKPLLGDQSHAGSELLQRCESLEKKTATFENIVCVLNREVERVAMTAEACSRQHRLDQDKIEALSSKVQQLERSIGLKDLAMADLEQKVLEMEASTYDGVFIWKISDFARKRQEAVAGRIPAIFSPAFYTSRYGYKMCLRIYLNGDGTGRGTHLSLFFVVMKGPNDALLRWPFNQKVTLMLLDQNNREHVIDAFRPDVTSSSFQRPVNDMNIASGCPLFCPVSKMEAKNSYVRDDAIFIKAIVDLTGL
# B2: UBX domain-containing protein 2B (Homo sapiens), Q14CS0 (parent)
# chain: MAEGGGPEPGEQERRSSGPRPPSARDLQLALAELYEDEVKCKSSKSNRPKATVFKSPRTPPQRFYSSEHEYSGLNIVRPSTGKIVNELFKEAREHGAVPLNEATRASGDDKSKSFTGGGYRLGSSFCKRSEYIYGENQLQDVQILLKLWSNGFSLDDGELRPYNEPTNAQFLESVKRGEIPLELQRLVHGGQVNLDMEDHQDQEYIKPRLRFKAFSGEGQKLGSLTPEIVSTPSSPEEEDKSILNAVVLIDDSVPTTKIQIRLADGSRLIQRFNSTHRILDVRNFIVQSRPEFAALDFILVTSFPNKELTDESLTLLEADILNTVLLQQLK
# partner: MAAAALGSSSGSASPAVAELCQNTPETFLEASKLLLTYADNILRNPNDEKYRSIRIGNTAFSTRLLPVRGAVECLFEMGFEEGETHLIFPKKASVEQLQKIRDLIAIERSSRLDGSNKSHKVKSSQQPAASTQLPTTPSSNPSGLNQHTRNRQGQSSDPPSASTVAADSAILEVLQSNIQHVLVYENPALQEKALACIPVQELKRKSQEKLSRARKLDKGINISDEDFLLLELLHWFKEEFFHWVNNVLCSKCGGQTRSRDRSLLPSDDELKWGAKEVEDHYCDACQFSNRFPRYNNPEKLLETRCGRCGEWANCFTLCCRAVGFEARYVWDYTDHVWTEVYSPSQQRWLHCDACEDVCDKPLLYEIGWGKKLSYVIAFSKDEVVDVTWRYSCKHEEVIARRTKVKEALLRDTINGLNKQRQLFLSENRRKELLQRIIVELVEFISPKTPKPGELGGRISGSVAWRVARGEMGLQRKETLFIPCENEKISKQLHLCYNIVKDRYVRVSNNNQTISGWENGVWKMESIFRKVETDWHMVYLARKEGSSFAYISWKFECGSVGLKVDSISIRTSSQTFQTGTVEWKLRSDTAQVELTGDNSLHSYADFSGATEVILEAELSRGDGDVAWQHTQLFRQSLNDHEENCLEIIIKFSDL
# B3: Protein LRATD2 (Homo sapiens), Q96KN1 (parent)
# chain: MGNQVEKLTHLSYKEVPTADPTGVDRDDGPRIGVSYIFSNDDEDVEPQPPPQGPDGGGLPDGGDGPPPPQPQPYDPRLHEVECSVFYRDECIYQKSFAPGSAALSTYTPENLLNKCKPGDLVEFVSQAQYPHWAVYVGNFQVVHLHRLEVINSFLTDASQGRRGRVVNDLYRYKPLSSSAVVRNALAHVGAKERELSWRNSESFAAWCRYGKREFKIGGELRIGKQPYRLQIQLSAQRSHTLEFQSLEDLIMEKRRNDQIGRAAVLQELATHLHPAEPEEGDSNVARTTPPPGRPPAPSSEEEDGEAVAH
# partner: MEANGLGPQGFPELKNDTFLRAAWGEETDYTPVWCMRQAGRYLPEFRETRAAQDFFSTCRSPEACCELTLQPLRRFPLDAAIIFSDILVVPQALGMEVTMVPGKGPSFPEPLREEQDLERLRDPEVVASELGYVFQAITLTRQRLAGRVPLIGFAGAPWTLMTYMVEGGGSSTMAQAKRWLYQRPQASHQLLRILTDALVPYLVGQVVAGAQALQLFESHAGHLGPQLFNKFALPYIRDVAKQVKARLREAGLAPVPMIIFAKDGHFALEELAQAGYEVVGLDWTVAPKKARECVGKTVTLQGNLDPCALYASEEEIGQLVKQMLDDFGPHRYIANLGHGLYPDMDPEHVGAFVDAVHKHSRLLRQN
# B4: Cyclin-dependent kinase 4 inhibitor C (Homo sapiens), P42773 (parent)
# chain: MAEPWGNELASAAARGDLEQLTSLLQNNVNVNAQNGFGRTALQVMKLGNPEIARRLLLRGANPDLKDRTGFAVIHDAARAGFLDTLQTLLEFQADVNIEDNEGNLPLHLAAKEGHLRVVEFLVKHTASNVGHRNHKGDTACDLARLYGRNEVVSLMQANGAGGATNLQ
# partner: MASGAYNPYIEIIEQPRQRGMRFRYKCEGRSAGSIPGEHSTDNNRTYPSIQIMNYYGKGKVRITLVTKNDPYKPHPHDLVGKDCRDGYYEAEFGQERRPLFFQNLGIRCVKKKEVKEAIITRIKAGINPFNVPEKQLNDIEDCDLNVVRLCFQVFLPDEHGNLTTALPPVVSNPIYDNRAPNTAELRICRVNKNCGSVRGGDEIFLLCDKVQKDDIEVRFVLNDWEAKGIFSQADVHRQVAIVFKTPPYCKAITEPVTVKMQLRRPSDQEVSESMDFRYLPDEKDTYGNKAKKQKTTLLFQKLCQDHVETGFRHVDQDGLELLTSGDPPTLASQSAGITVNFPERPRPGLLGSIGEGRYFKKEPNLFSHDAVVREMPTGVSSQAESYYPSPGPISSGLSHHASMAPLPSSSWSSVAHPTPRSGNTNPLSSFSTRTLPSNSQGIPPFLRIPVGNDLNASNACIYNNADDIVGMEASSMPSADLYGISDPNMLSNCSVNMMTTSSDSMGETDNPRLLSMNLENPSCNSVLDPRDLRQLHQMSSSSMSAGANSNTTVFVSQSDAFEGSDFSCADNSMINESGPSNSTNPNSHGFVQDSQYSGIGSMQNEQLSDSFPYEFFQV
# B5: TBC1 domain family member 22B (Homo sapiens), Q9NU19 (parent)
# chain: MAAENSKQFWKRSAKLPGSIQPVYGAQHPPLDPRLTKNFIKERSKVNTVPLKNKKASSFHEFARNTSDAWDIGDDEEEDFSSPSFQTLNSKVALATAAQVLENHSKLRVKPERSQSTTSDVPANYKVIKSSSDAQLSRNSSDTCLRNPLHKQQSLPLRPIIPLVARISDQNASGAPPMTVREKTRLEKFRQLLSSQNTDLDELRKCSWPGVPREVRPITWRLLSGYLPANTERRKLTLQRKREEYFGFIEQYYDSRNEEHHQDTYRQIHIDIPRTNPLIPLFQQPLVQEIFERILFIWAIRHPASGYVQGINDLVTPFFVVFLSEYVEEDVENFDVTNLSQDMLRSIEADSFWCMSKLLDGIQDNYTFAQPGIQKKVKALEELVSRIDEQVHNHFRRYEVEYLQFAFRWMNNLLMRELPLRCTIRLWDTYQSEPEGFSHFHLYVCAAFLIKWRKEILDEEDFQGLLMLLQNLPTIHWGNEEIGLLLAEAYRLKYMFADAPNHYRR
# B6: Kelch-like protein 2 (Homo sapiens), O95198 (parent)
# chain: METPPLPPACTKQGHQKPLDSKDDNTEKHCPVTVNPWHMKKAFKVMNELRSQNLLCDVTIVAEDMEISAHRVVLAACSPYFHAMFTGEMSESRAKRVRIKEVDGWTLRMLIDYVYTAEIQVTEENVQVLLPAAGLLQLQDVKKTCCEFLESQLHPVNCLGIRAFADMHACTDLLNKANTYAEQHFADVVLSEEFLNLGIEQVCSLISSDKLTISSEEKVFEAVIAWVNHDKDVRQEFMARLMEHVRLPLLPREYLVQRVEEEALVKNSSACKDYLIEAMKYHLLPTEQRILMKSVRTRLRTPMNLPKLMVVVGGQAPKAIRSVECYDFKEERWHQVAELPSRRCRAGMVYMAGLVFAVGGFNGSLRVRTVDSYDPVKDQWTSVANMRDRRSTLGAAVLNGLLYAVGGFDGSTGLSSVEAYNIKSNEWFHVAPMNTRRSSVGVGVVGGLLYAVGGYDGASRQCLSTVECYNATTNEWTYIAEMSTRRSGAGVGVLNNLLYAVGGHDGPLVRKSVEVYDPTTNAWRQVADMNMCRRNAGVCAVNGLLYVVGGDDGSCNLASVEYYNPTTDKWTVVSSCMSTGRSYAGVTVIDKPL
# partner: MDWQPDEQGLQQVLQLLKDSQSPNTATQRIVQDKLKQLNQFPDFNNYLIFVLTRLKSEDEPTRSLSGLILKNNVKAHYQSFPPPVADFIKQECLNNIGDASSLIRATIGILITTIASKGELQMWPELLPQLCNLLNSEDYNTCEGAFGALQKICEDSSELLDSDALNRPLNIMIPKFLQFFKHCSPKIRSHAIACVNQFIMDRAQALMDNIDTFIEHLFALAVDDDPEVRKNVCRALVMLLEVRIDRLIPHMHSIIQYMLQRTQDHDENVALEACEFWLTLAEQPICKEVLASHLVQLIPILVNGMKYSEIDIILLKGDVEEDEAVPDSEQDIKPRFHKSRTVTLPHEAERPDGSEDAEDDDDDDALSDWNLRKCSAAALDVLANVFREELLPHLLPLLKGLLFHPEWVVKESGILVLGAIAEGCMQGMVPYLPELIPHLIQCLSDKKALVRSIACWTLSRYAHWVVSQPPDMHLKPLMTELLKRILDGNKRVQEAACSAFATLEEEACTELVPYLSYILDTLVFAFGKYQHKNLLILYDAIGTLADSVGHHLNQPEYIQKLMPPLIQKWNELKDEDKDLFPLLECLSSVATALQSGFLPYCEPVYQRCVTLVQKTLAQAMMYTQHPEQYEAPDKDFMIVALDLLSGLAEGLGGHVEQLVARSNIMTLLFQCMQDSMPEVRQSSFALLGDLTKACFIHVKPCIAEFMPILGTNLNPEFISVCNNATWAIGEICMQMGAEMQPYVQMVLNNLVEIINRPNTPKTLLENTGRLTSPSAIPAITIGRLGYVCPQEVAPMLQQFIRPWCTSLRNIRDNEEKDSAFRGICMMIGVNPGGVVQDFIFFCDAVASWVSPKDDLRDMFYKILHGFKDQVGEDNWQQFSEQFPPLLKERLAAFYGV
# Variants of: B1
# Conditions: with traf1_human TRAF1, Q13077
# Sequence of traf1_human TRAF1, Q13077 (Q13077 whole entry): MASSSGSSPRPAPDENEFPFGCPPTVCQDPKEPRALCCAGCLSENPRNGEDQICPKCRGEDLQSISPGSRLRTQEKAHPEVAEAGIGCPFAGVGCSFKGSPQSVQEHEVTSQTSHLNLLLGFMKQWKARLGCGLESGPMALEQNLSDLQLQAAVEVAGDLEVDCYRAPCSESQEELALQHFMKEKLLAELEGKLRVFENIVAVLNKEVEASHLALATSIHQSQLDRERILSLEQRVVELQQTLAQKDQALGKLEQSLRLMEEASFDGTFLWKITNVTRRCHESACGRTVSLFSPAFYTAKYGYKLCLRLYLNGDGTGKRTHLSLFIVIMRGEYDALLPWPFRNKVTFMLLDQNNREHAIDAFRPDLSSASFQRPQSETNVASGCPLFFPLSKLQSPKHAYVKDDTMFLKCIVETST
row,effect of a mutation on the interaction,Variant
1,with no effect,E276Q
2,with no effect,K278T
3,with no effect,A264T

# Variants of: B2
# Conditions: with ngly1_human NGLY1, Q96IV0
row,effect of a mutation on the interaction,Variant
1,with no effect,D109A

# Variants of: B3
# Conditions: with dcup_human UROD
row,effect of a mutation on the interaction,Variant
1,with no effect,P71T

# Variants of: B4
# Conditions: with rel_human REL
row,effect of a mutation on the interaction,Variant
1,with no effect,T69A
2,disrupting interaction strength,V31L

# Variants of: B5
# Conditions: with tri23_human TRIM23, P36406
# Sequence of tri23_human TRIM23, P36406 (P36406 whole entry): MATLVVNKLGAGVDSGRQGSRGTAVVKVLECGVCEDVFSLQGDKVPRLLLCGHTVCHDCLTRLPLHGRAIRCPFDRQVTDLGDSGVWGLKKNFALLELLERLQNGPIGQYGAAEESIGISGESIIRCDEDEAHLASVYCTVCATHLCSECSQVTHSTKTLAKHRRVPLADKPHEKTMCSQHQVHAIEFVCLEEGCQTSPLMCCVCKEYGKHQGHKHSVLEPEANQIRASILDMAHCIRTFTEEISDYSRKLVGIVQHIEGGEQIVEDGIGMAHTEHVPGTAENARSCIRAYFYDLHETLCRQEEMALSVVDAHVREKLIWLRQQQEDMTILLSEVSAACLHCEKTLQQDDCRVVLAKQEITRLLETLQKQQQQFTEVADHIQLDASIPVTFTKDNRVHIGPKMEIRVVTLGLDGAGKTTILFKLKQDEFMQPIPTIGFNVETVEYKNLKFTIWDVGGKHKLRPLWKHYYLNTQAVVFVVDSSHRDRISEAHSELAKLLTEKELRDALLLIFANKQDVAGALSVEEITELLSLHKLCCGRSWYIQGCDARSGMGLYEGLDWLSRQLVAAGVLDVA
row,effect of a mutation on the interaction,Variant
1,with no effect,P177A

# Variants of: B5
# Conditions: with ikzf3_human IKZF3, Q9UKT9
# Sequence of ikzf3_human IKZF3, Q9UKT9 (Q9UKT9 whole entry): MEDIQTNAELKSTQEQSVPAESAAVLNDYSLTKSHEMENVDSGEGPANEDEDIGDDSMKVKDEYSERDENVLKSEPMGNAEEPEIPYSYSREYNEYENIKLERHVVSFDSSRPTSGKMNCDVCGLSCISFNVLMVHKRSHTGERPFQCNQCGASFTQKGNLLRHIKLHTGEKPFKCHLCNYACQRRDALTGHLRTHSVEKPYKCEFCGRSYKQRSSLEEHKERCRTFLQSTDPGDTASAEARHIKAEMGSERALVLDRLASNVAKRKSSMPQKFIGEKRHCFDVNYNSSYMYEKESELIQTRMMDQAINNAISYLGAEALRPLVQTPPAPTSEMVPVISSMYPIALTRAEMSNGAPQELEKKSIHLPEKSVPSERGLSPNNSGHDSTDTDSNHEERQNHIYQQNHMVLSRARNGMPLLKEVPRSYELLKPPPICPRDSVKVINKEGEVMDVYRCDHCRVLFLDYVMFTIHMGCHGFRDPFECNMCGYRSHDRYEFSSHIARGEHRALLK
row,effect of a mutation on the interaction,Variant
1,with no effect,P177A

# Variants of: B6
# Conditions: with tnpo2_human TNPO2, O14787
row,effect of a mutation on the interaction,Variant
1,with no effect,S68A
2,with no effect,A480T
